From patent publication US12139520B2 (priority 2020, dated 2024)
Bridge positions count the residues as written; N and C are the ends. Square brackets hold non-standard residues; d marks the D form. Ends that are not written are not given here. Hyp = O=C(O)[C@@H]1C[C@@H](O)CN1; Cit = NC(=O)NCCC[C@H](N)C(=O)O

T1: hAMY3R (human, UniProt P30988)
T1 sequence 1: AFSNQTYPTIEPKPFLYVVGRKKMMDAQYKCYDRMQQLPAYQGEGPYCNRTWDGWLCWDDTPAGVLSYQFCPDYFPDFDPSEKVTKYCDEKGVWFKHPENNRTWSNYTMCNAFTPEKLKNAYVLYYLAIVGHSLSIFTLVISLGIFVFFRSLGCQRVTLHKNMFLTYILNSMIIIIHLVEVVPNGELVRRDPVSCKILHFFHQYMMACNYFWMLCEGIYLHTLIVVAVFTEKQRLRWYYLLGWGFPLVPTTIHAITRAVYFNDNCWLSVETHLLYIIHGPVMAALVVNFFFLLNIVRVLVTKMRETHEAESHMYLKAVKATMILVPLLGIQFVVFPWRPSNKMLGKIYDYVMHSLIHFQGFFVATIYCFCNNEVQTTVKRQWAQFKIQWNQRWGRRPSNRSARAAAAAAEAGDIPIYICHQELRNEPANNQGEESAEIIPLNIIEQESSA
T1 sequence 2: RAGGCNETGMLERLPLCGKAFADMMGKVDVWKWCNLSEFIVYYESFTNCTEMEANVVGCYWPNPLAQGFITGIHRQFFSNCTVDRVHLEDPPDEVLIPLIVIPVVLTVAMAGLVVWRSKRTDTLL


Tests used:
hAM1R = hAM1R (human, UniProt Q16602); assay: cell-based or functional assay
hAMY3R = target: T1, hAMY3R; assay: cell-based or functional assay

Binder | hAM1R EC50 (cAMP) (hAM1R) [nM] | hAMY3R EC50 (cAMP) (hAMY3R) [nM]
KCNTATCTVQ[Cit]LAHQIYQFTDKDKDNVAPRTKVGSNGY-NH2 (disulfide 2-7 (inferred); ends not checked) [SEQ ID NO: 257] | 2040 | 0.016
KCNTATCTVQRLAHQIYQFTDKDADNVAPPTNVGSNG[Hyp]-NH2 (disulfide 2-7 (inferred); ends not checked) [SEQ ID NO: 25] | > 5000 | 0.008
KCNTATCTVQ[Cit]LAHQIYQFDKDKDNVAPPTNVGSNG[Hyp]-NH2 (disulfide 2-7 (inferred); ends not checked) [SEQ ID NO: 265] | > 5000 | 0.03
KCNTATCTVQRLAHQIYQFTDKDKDNAAPPTNVGSNG[Hyp]-NH2 (disulfide 2-7 (inferred); ends not checked) [SEQ ID NO: 27] | > 5000 | 0.008
KCNTATCTVQ[Cit]LAHQIYQFTKDKDNVAPPTNVGSNG[Hyp]-NH2 (disulfide 2-7 (inferred); ends not checked) [SEQ ID NO: 253] | > 5000 | 0.004
KCNTATCTVQ[Cit]LAEQIYQFTDKDKDNVSPPTNVGSNG[Hyp]-NH2 (disulfide 2-7 (inferred); ends not checked) [SEQ ID NO: 266] | > 5000 | 0.053
KCNTATCTVQ[Cit]LAHQIYQFTDKDKDNVAAPTNVGSNG[Hyp]-NH2 (disulfide 2-7 (inferred); ends not checked) [SEQ ID NO: 262] | > 5000 | 0.014
KCNTATCTVQ[Cit]LAHQIYQFADKDKDNVAPPTNVGSNG[Hyp]-NH2 (disulfide 2-7 (inferred); ends not checked) [SEQ ID NO: 249] | > 5000 | 0.006
KCNTATCTVQ[Cit]LAHQIYQFTDKDKDNVAPPTNVGSNG[Hyp]-NH2 (disulfide 2-7 (inferred); ends not checked) [SEQ ID NO: 268] | > 5000 | 0.014
GCRTGTCTVQ[Cit]LAHQIYQFTDKDKDNVAPRTNVGPNGY-NH2 (disulfide 2-7 (inferred); ends not checked) [SEQ ID NO: 269] | > 5000 | 0.005
KCNTATCTVQ[Cit]LAHQIYQFTDKDKDNVAPTNVGSNG[Hyp]-NH2 (disulfide 2-7 (inferred); ends not checked) [SEQ ID NO: 255] | > 5000 | 0.007
GCRFGTCTVQ[Cit]LAHQIYQFTDKDKDNVAPRTNVGPQG[Hyp]-NH2 (disulfide 2-7 (inferred); ends not checked) [SEQ ID NO: 267] | 2490 | 0.007
KCNFATCTVQRLAHQIYQFTDKDKDNVAPRTKVGSNG[Hyp]-NH2 (disulfide 2-7 (inferred); ends not checked) [SEQ ID NO: 3] | 124 | 0.006
KCNTATCTVQ[Cit]LAHQIYQFTDKDADNVAPPTNVGSNG[Hyp]-NH2 (disulfide 2-7 (inferred); ends not checked) [SEQ ID NO: 250] | > 5000 | 0.011
GCRFGTCTVQ[Cit]LAHQIYQFTDKDKDNVAPRTNVGPNG[Hyp]-NH2 (disulfide 2-7 (inferred); ends not checked) [SEQ ID NO: 270] | 1880 | 0.003

Continued, values first:

hAM1R EC50 (cAMP) (hAM1R) [nM] | hAMY3R EC50 (cAMP) (hAMY3R) [nM] | Binder
> 5000 | 0.004 | KCNTSTCTVA[Cit]LADQITQFSDKDKANVSPPTEVGPNS[Hyp]-NH2 (disulfide 2-7 (inferred); ends not checked) [SEQ ID NO: 247]
1280 | 0.005 | GCRFGTCTVQ[Cit]LAHFLYQFTDKDKDNVAPRTNVGPQGY-NH2 (disulfide 2-7 (inferred); ends not checked) [SEQ ID NO: 263]
> 5000 | 0.006 | KCNTSTCTVA[Cit]LADQITQFSNKDKAQVSPPTEVGPNS[Hyp]-NH2 (disulfide 2-7 (inferred); ends not checked) [SEQ ID NO: 244]
4320 | 0.013 | GCRFGTCTVQ[Cit]LAHQIYQFTDKDKDNVAPRTKVGPQG[Hyp]-NH2 (disulfide 2-7 (inferred); ends not checked) [SEQ ID NO: 259]
> 5000 | 0.018 | GCRTGTCTVQ[Cit]LAHQIYQFTDKDKDNVAPRTNVGPQG[Hyp]-NH2 (disulfide 2-7 (inferred); ends not checked) [SEQ ID NO: 261]
> 5000 | 0.006 | KCNTATCTVQ[Cit]LAHQIYQFTDKDKDNVAPATNVGSNG[Hyp]-NH2 (disulfide 2-7 (inferred); ends not checked) [SEQ ID NO: 252]
> 5000 | 0.006 | KCNTATCTVQ[Cit]LAHQIYQFTDKDKDNVPPTNVGSNG[Hyp]-NH2 (disulfide 2-7 (inferred); ends not checked) [SEQ ID NO: 254]
> 5000 | 0.008 | KCNTATCTVQRLAHQIYQFTDKDKANVAPPTNVGSNG[Hyp]-NH2 (disulfide 2-7 (inferred); ends not checked) [SEQ ID NO: 26]
4160 | 0.011 | GCRFGTCTVQ[Cit]LAHQIYQFTDKDKDNVAPRTNIGPQG[Hyp]-NH2 (disulfide 2-7 (inferred); ends not checked) [SEQ ID NO: 260]
> 5000 | 0.01 | KCNTATCTVQ[Cit]LAHQIYQFTDKAKDNVAPPTNVGSNG[Hyp]-NH2 (disulfide 2-7 (inferred); ends not checked) [SEQ ID NO: 258]
> 5000 | 0.017 | RCNASTCTVN[Cit]LADQITQFSNKDKAQVSPPTEVGPNS[Hyp]-NH2 (disulfide 2-7 (inferred); ends not checked) [SEQ ID NO: 245]
96.6 | 0.01 | GCRFGTCTVQ[Cit]LAHQIYQFTDKDKDNVAPRTNVSPNGY-NH2 (disulfide 2-7 (inferred); ends not checked) [SEQ ID NO: 271]
> 5000 | 0.007 | RCQTSTCTVA[Cit]LAEQIAQYTDKDKDQVAPPTNVGSNS[Hyp]-NH2 (disulfide 2-7 (inferred); ends not checked) [SEQ ID NO: 256]
> 5000 | 0.006 | KCNTATCTVQ[Cit]LAHQIYQFTDKDKDNAAPPTNVGSNG[Hyp]-NH2 (disulfide 2-7 (inferred); ends not checked) [SEQ ID NO: 251]
> 5000 | 0.01 | KCNTATCTVQ[Cit]LAHQIAQFTDKDKDNVAPPTNVGSNG[Hyp]-NH2 (disulfide 2-7 (inferred); ends not checked) [SEQ ID NO: 246]
3590 | 0.027 | KCNTATCTVQ[Cit]LAHQIYQFTDKDKDNVAPRTKVGSNG[Hyp]-NH2 (disulfide 2-7 (inferred); ends not checked) [SEQ ID NO: 248]
3470 | 0.006 | GCRFGTCTVQ[Cit]LAHFLYQFTDKDKDNVAPRTNVGSNTY-NH2 (disulfide 2-7 (inferred); ends not checked) [SEQ ID NO: 264]
